Patent US20050226876A1

Columns and labels:
[1] = target: Fcγ receptors on human monocytes (FcγRI and RII); test: FACS on monocytes from human blood, antibody 10 µg/ml; no antibody: 8.5
[2] = target: Fcγ receptor on human NK cells (FcγRIII) (human) (UniProt P08637); test: FACS on NK cells from human blood, antibody 10 µg/ml; no antibody: 0.03
[3] = target: human complement factor C3 (from human pooled serum) (human) (UniProt P01024); test: C3 ELISA, antibody coated, human pooled serum; background OD405 0.098
Sequence of human complement factor C3 (from human pooled serum) (human) (P01024 23-1663 limits assumed): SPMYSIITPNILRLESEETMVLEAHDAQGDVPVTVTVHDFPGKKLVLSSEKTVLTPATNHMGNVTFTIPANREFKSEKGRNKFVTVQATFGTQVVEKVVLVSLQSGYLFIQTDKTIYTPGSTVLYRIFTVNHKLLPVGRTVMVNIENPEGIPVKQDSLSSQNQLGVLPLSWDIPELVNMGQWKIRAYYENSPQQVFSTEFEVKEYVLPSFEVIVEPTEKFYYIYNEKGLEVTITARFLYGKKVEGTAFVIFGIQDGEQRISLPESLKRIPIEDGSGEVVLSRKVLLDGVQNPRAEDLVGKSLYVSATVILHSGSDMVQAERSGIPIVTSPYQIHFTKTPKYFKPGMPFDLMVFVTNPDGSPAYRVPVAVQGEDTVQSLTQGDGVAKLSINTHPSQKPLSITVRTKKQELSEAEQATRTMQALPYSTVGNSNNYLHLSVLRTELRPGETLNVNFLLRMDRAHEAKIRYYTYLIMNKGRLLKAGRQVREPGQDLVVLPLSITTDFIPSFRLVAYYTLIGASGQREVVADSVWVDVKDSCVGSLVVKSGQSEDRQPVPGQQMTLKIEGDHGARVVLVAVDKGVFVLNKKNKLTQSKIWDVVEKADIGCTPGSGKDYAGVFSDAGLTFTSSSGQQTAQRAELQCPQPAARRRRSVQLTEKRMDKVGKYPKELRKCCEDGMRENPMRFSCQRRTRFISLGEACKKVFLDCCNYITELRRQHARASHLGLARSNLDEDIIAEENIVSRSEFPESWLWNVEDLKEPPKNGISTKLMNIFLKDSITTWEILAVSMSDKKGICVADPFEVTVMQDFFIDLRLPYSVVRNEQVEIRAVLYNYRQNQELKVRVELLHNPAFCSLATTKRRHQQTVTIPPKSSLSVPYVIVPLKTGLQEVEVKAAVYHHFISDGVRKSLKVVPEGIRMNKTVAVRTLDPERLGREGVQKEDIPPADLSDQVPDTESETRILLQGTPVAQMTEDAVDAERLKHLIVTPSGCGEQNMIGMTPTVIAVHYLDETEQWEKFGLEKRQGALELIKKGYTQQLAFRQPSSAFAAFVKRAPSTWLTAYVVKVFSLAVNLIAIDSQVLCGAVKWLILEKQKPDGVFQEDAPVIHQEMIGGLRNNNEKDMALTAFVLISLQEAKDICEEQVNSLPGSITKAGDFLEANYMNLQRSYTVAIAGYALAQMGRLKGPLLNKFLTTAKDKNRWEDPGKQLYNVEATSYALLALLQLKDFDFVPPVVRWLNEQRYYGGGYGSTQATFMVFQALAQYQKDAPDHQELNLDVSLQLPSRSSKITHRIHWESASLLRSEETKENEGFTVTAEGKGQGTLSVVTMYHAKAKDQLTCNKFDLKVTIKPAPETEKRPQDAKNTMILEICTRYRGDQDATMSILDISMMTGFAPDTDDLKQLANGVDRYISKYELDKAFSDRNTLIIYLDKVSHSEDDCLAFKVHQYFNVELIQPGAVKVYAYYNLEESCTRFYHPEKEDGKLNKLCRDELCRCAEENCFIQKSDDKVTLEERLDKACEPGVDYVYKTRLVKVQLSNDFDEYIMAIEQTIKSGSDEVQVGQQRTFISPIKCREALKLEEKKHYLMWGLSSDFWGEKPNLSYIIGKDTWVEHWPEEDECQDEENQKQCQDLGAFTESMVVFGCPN

[4] = target: human complement factor C1q (human) (UniProt P02745); test: C1q ELISA, antibody coated; background OD405 0.079
Sequence of human complement factor C1q (human) (P02745 23-245 limits assumed, chain 1 of 3): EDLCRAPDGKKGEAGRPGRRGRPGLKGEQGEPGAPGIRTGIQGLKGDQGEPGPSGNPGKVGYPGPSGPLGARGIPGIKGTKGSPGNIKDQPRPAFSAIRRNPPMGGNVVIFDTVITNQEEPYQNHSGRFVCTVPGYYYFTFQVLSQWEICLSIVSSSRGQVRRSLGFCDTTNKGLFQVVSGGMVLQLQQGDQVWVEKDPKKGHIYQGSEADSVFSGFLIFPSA
Sequence of human complement factor C1q (human) (P02746 28-253 limits assumed, chain 2 of 3, further chain): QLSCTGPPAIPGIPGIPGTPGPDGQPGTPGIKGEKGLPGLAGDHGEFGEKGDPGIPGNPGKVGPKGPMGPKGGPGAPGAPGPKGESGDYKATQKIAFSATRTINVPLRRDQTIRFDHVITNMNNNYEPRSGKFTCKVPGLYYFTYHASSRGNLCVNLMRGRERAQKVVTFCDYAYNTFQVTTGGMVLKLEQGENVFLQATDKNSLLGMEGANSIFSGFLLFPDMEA
Sequence of human complement factor C1q (human) (P02747 29-245 limits assumed, chain 3 of 3, further chain): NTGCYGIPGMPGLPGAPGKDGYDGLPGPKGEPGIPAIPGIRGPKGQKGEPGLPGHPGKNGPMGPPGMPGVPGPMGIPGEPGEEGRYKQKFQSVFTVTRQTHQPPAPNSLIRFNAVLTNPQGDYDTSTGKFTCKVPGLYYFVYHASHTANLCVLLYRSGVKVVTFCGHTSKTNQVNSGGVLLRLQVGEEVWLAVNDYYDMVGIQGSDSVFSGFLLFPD

[5] = target: Fcγ receptors on human granulocytes (FcγRII and RIII); test: FACS on granulocytes from human blood, antibody 10 µg/ml; no antibody: 1.2

Sequence of Fcγ receptor on human NK cells (FcγRIII) (human) (P08637 17-254): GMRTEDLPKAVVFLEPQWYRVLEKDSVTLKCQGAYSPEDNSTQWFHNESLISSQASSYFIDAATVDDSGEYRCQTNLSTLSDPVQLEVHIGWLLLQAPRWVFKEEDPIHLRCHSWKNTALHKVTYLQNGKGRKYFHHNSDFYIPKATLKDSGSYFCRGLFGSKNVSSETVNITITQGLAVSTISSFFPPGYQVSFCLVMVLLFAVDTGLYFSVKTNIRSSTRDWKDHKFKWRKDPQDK

Substance	% monocytes binding antibody [1] [%]	% NK cells binding antibody [2] [%]	Bmax (OD405 at 10 µg/ml) [3] [OD405]	Bmax (OD405 at 10 µg/ml) [4] [OD405]	% granulocytes binding antibody [5] [%]
human IgG4 (CLB, the Netherlands), negative control (antibody)	9.4	0.06	0.182	0.222	–
HuMab 002 Fc variant IgG4v1 (S228P; L235E) (antibody)	14.5	–	–	–	1.6
